In the supplement of paper PMC5998384:

Experiments:
HeLa Kyoto [1] = assay: thermal stability score vs G1/S (z-score of summed log2 fold changes over temperatures); higher = more thermally stable than in G1/S
HeLa Kyoto [2] = assay: melting temperature (median over replicates), in situ; higher = more thermally stable
HeLa Kyoto [3] = assay: solubility in G1/S (NP-40 vs SDS abundance) (log2 ratio); higher = more soluble; details: cell cycle stage: G1/S
HeLa Kyoto [4] = assay: solubility change mitosis vs G1/S (difference of NP-40 vs SDS log2 ratios) (log2 ratio difference); higher = more soluble in mitosis
[5] = cell cycle stage: early G1 (4.5 h after nocodazole release)
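Throughout, for melting temperature (median over replicates), in situ: HeLa Kyoto cells synchronized by double thymidine or nocodazole block, proteins quantified by TMT10plex mass spectrometry, three independent biological replicates.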
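Throughout, for solubility change mitosis vs G1/S (difference of NP-40 vs SDS log2 ratios): synchronized HeLa Kyoto cells (double thymidine block for G1/S, nocodazole release for mitosis), protein amounts in NP-40 versus SDS lysates quantified by mass spectrometry, three biological replicates.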
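Throughout, for solubility in G1/S (NP-40 vs SDS abundance): HeLa Kyoto cells arrested at G1/S by double thymidine block, proteins quantified by TMT10plex mass spectrometry in mild NP-40 versus SDS extracts, three biological replicates.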
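Throughout, for thermal stability score vs G1/S (z-score of summed log2 fold changes over temperatures): synchronized HeLa Kyoto cells, proteins quantified by TMT10plex mass spectrometry, three biological replicates, mitosis taken 0.5 h after nocodazole release, G1/S directly after double thymidine block.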

Chain of SAFB2 (chain, as listed by the source): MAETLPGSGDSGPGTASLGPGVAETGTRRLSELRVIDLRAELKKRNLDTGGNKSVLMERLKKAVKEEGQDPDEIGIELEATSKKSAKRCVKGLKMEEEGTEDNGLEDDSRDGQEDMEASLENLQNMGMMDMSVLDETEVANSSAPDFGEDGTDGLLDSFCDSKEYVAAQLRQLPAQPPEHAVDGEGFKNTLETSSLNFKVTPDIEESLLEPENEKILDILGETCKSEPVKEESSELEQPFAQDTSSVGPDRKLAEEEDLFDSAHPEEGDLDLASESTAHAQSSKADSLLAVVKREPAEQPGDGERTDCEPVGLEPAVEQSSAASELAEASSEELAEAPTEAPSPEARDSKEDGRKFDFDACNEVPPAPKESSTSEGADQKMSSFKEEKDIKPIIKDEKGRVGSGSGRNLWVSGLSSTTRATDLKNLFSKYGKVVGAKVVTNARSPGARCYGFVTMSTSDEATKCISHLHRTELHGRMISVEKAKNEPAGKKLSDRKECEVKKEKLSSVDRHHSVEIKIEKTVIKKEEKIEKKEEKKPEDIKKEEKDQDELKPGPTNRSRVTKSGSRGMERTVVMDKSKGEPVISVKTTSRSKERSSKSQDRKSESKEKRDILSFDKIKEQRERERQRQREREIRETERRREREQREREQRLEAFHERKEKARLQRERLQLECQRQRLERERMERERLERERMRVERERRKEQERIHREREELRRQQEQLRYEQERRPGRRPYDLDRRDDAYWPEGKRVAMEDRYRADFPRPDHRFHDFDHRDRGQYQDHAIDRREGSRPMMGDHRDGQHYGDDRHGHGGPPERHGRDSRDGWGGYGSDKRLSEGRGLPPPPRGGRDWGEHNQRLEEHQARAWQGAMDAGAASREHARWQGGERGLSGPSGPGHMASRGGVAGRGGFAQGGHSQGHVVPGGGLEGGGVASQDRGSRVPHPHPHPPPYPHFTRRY

Substance | thermal stability score (HeLa Kyoto [1]; [5]) | thermal stability score (HeLa Kyoto [1]; cell cycle stage: mitosis) | melting temperature (HeLa Kyoto [2]; cell cycle stage: G1/S) | solubility in G1/S (log2) (HeLa Kyoto [3]) | solubility change mitosis (log2) (HeLa Kyoto [4]) | melting temperature (HeLa Kyoto [2]; cell cycle stage: mitosis)
MPAPEQASLVEEGQPQTRQEAASTGPGMEPETTATTILASVKEQELQFQRLTRELEVERQIVASQLERCRLGAESPSIASTSSTEKSFPWRSTDVPNTGVSKPRVSDAVQPNNYLIRTEPEQGTLYSPEQTSLHESEGSLGNSRSSTQMNSYSDSGYQEAGSFHNSQNVSKADNRQQHSFIGSTNNHVVRNSRAEGQTLVQPSVANRAMRRVSSVPSRAQSPSYVISTGVSPSRGSLRTSLGSGFGSPSVTDPRPLNPSAYSSTTLPAARAASPYSQRPASPTAIRRIGSVTSRQTSNPNGPTPQYQTTARVGSPLTLTDAQTRVASPSQGQVGSSSPKRSGMTAVPQHLGPSLQRTVHDMEQFGQQQYDIYERMVPPRPDSLTGLRSSYASQHSQLGQDLRSAVSPDLHITPIYEGRTYYSPVYRSPNHGTVELQGSQTALYRTGSVGIGNLQRTSSQRSTLTYQRNNYALNTTATYAEPYRPIQYRVQECNYNRLQHAVPADDGTTRSPSIDSIQKDPREFAWRDPELPEVIHMLQHQFPSVQANAAAYLQHLCFGDNKVKMEVCRLGGIKHLVDLLDHRVLEVQKNACGALRNLVFGKSTDENKIAMKNVGGIPALLRLLRKSIDAEVRELVTGVLWNLSSCDAVKMTIIRDALSTLTNTVIVPHSGWNNSSFDDDHKIKFQTSLVLRNTTGCLRNLSSAGEEARKQMRSCEGLVDSLLYVIHTCVNTSDYDSKTVENCVCTLRNLSYRLELEVPQARLLGLNELDDLLGKESPSKDSEPSCWGKKKKKKKRTPQEDQWDGVGPIPGLSKSPKGVEMLWHPSVVKPYLTLLAESSNPATLEGSAGSLQNLSAGNWKFAAYIRAAVRKEKGLPILVELLRMDNDRVVSSVATALRNMALDVRNKELIGKYAMRDLVNRLPGGNGPSVLSDETMAAICCALHEVTSKNMENAKALADSGGIEKLVNITKGRGDRSSLKVVKAAAQVLNTLWQYRDLRSIYKKDGWNQNHFITPVSTLERDRFKSHPSLSTTNQQMSPIIQSVGSTSSSPALLGIRDPRSEYDRTQPPMQYYNSQGDATHKGLYPGSSKPSPIYISSYSSPAREQNRRLQHQQLYYSQDDSNRKNFDAYRLYLQSPHSYEDPYFDDRVHFPASTDYSTQYGLKSTTNYVDFYSTKRPSYRAEQYPGSPDSWV [PKP4] | -0.193 | -0.925 | 50.6 °C | -0.319 | 0.0763 | 
MEFVKCLGHPEEFYNLVRFRIGGKRKVMPKMDQDSLSSSLKTCYKYLNQTSRSFAAVIQALDGEMRNAVCIFYLVLRALDTLEDDMTISVEKKVPLLHNFHSFLYQPDWRFMESKEKDRQVLEDFPTISLEFRNLAEKYQTVIADICRRMGIGMAEFLDKHVTSEQEWDKYCHYVAGLVGIGLSRLFSASEFEDPLVGEDTERANSMGLFLQKTNIIRDYLEDQQGGREFWPQEVWSRYVKKLGDFAKPENIDLAVQCLNELITNALHHIPDVITYLSRLRNQSVFNFCAIPQVMAIATLAACYNNQQVFKGAVKIRKGQAVTLMMDATNMPAVKAIIYQYMEEIYHRIPDSDPSSSKTRQIISTIRTQNLPNCQLISRSHYSPIYLSFVMLLAALSWQYLTTLSQVTEDYVQTGEH [FDFT1] | 1.39 | 0.889 | 52.2 °C | -0.184 | -0.0823 | 51.4 °C
MWLPLVLLLAVLLLAVLCKVYLGLFSGSSPNPFSEDVKRPPAPLVTDKEARKKVLKQAFSANQVPEKLDVVVIGSGFGGLAAAAILAKAGKRVLVLEQHTKAGGCCHTFGKNGLEFDTGIHYIGRMEEGSIGRFILDQITEGQLDWAPLSSPFDIMVLEGPNGRKEYPMYSGEKAYIQGLKEKFPQEEAIIDKYIKLVKVVSSGAPHAILLKFLPLPVVQLLDRCGLLTRFSPFLQASTQSLAEVLQQLGASSELQAVLSYIFPTYGVTPNHSAFSMHALLVNHYMKGGFYPRGGSSEIAFHTIPVIQRAGGAVLTKATVQSVLLDSAGKACGVSVKKGHELVNIYCPIVVSNAGLFNTYEHLLPGNARCLPGVKQQLGTVRPGLGMTSVFICLRGTKEDLHLPSTNYYVYYDTDMDQAMERYVSMPREEAAEHIPLLFFAFPSAKDPTWEDRFPGRSTMIMLIPTAYEWFEEWQAELKGKRGSDYETFKNSFVEASMSVVLKLFPQLEGKVESVTAGSPLTNQFYLAAPRGACYGADHDLGRLHPCVMASLRAQSPIPNLYLTGQDIFTCGLVGALQGALLCSSAILKRNLYSDLKNLDSRIRAQKKKN [RETSAT] | 2.89 | 3.75 | 52.1 °C | 0.0503 | -0.0973 | 52.2 °C
MASPPRHGPPGPASGDGPNLNNNNNNNNHSVRKCGYLRKQKHGHKRFFVLRGPGAGGDEATAGGGSAPQPPRLEYYESEKKWRSKAGAPKRVIALDCCLNINKRADAKHKYLIALYTKDEYFAVAAENEQEQEGWYRALTDLVSEGRAAAGDAPPAAAPAASCSASLPGALGGSAGAAGAEDSYGLVAPATAAYREVWQVNLKPKGLGQSKNLTGVYRLCLSARTIGFVKLNCEQPSVTLQLMNIRRCGHSDSFFFIEVGRSAVTGPGELWMQADDSVVAQNIHETILEAMKALKELFEFRPRSKSQSSGSSATHPISVPGARRHHHLVNLPPSQTGLVRRSRTDSLAATPPAAKCSSCRVRTASEGDGGAAAGAAAAGARPVSVAGSPLSPGPVRAPLSRSHTLSGGCGGRGSKVALLPAGGALQHSRSMSMPVAHSPPAATSPGSLSSSSGHGSGSYPPPPGPHPPLPHPLHHGPGQRPSSGSASASGSPSDPGFMSLDEYGSSPGDLRAFCSHRSNTPESIAETPPARDGGGGGEFYGYMTMDRPLSHCGRSYRRVSGDAAQDLDRGLRKRTYSLTTPARQRPVPQPSSASLDEYTLMRATFSGSAGRLCPSCPASSPKVAYHPYPEDYGDIEIGSHRSSSSNLGADDGYMPMTPGAALAGSGSGSCRSDDYMPMSPASVSAPKQILQPRAAAAAAAAVPSAGPAGPAPTSAAGRTFPASGGGYKASSPAESSPEDSGYMRMWCGSKLSMEHADGKLLPNGDYLNVSPSDAVTTGTPPDFFSAALHPGGEPLRGVPGCCYSSLPRSYKAPYTCGGDSDQYVLMSSPVGRILEEERLEPQATPGPSQAASAFGAGPTQPPHPVVPSPVRPSGGRPEGFLGQRGRAVRPTRLSLEGLPSLPSMHEYPLPPEPKSPGEYINIDFGEPGARLSPPAPPLLASAASSSSLLSASSPASSLGSGTPGTSSDSRQRSPLSDYMNLDFSSPKSPKPGAPSGHPVGSLDGLLSPEASSPYPPLPPRPSASPSSSLQPPPPPPAPGELYRLPPASAVATAQGPGAASSLSSDTGDNGDYTEMAFGVAATPPQPIAAPPKPEAARVASPTSGVKRLSLMEQVSGVEAFLQASQPPDPHRGAKVIRADPQGGRRRHSSETFSSTTTVTPVSPSFAHNPKRHNSASVENVSLRKSSEGGVGVGPGGGDEPPTSPRQLQPAPPLAPQGRPWTPGQPGGLVGCPGSGGSPMRRETSAGFQNGLNYIAIDVREEPGLPPQPQPPPPPLPQPGDKSSWGRTRSLGGLISAVGVGSTGGGCGGPGPGALPPANTYASIDFLSHHLKEATIVKE [IRS2] | -0.748 | 0.717 | 50.4 °C | -0.000472 | -0.0828 | 50.3 °C
TRIP11 | 0.295 | 1.48 | 49.1 °C | 0.34 | -0.135 | 49 °C
MDWVMKHNGPNDASDGTVRLRGLPFGCSKEEIVQFFQGLEIVPNGITLTMDYQGRSTGEAFVQFASKEIAENALGKHKERIGHRYIEIFRSSRSEIKGFYDPPRRLLGQRPGPYDRPIGGRGGYYGAGRGSMYDRMRRGGDGYDGGYGGFDDYGGYNNYGYGNDGFDDRMRDGRGMGGHGYGGAGDASSGFHGGHFVHMRGLPFRATENDIANFFSPLNPIRVHIDIGADGRATGEADVEFVTHEDAVAAMSKDKNNMQHRYIELFLNSTPGGGSGMGGSGMGGYGRDGMDNQGGYGSVGRMGMGNNYSGGYGTPDGLGGYGRGGGGSGGYYGQGGMSGGGWRGMY [HNRNPH3] | 3.81 | 9.58 | 45.4 °C | -0.0906 | 0.282 | 47.7 °C
KIAA1429 | 0.289 | 0.336 | 47.9 °C | -0.435 | 0.17 | 50.4 °C
MTGRAMDPLPAAAVGAAAEAEADEEADPPASDLPTPQAIEPQAIVQQVPAPSRMQMPQGNPLLLSHTLQELLARDTVQVELIPEKKGLFLKHVEYEVSSQRFKSSVYRRYNDFVVFQEMLLHKFPYRMVPALPPKRMLGADREFIEARRRALKRFVNLVARHPLFSEDVVLKLFLSFSGSDVQNKLKESAQCVGDEFLNCKLATRAKDFLPADIQAQFAISRELIRNIYNSFHKLRDRAERIASRAIDNAADLLIFGKELSAIGSDTTPLPSWAALNSSTWGSLKQALKGLSVEFALLADKAAQQGKQEENDVVEKLNLFLDLLQSYKDLCERHEKGVLHKHQRALHKYSLMKRQMMSATAQNREPESVEQLESRIVEQENAIQTMELRNYFSLYCLHQETQLIHVYLPLTSHILRAFVNSQIQGHKEMSKVWNDLRPKLSCLFAGPHSTLTPPCSPPEDGLCPH [SNX8] | -2.07 | -2.85 | 54 °C | 0.249 | -0.153 | 55.7 °C
SAFB2 | 0.782 | 0.916 | 50.3 °C | -0.828 | 0.345 | 51.4 °C
